US20220098265A1 (MEDIMMUNE LIMITED, priority 2012, published 2022)
Where two headings read alike, the source gives them in different places. Numbered stars: 1 amine (or outer) side, 2 acyl side, 3 side chain; on linkers, the order of the positions; unused ones are H or OH. Side chains are listed from the residue outwards. Ends that are not written are not given here. * marks the point of attachment. γGlu = O=C(O)[C@H](CCC(=O)[*:2])N[*:1]; Palmitoyl = CCCCCCCCCCCCCCCC(=O)*

Key:
Human GlucR = Human GlucR (Homo sapiens, UniProt P47871); assay: cAMP assay 2 in 4.4% human serum albumin, human GlucR; conditions: assay 2, 4.4% Human Serum Albumin; relative potency GlucR (vs glucagon)/relative potency GLP1R (vs GLP1)
Sequence of Human GlucR (P47871 26-477): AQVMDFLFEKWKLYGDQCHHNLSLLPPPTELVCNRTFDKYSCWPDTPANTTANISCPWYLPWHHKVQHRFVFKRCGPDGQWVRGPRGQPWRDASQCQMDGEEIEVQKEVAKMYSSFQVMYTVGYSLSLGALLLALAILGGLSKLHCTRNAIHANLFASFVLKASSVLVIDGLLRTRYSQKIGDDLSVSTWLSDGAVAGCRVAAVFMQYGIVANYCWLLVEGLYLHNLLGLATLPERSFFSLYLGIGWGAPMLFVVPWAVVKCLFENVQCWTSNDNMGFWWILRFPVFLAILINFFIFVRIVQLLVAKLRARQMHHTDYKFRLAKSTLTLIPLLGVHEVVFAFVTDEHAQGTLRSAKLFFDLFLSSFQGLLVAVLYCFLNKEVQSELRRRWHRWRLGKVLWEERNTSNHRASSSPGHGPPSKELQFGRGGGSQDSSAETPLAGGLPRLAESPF

Mouse GlucR = Mouse GlucR (Mus musculus, UniProt Q61606); assay: cAMP assay 2 in […] mouse serum albumin, mouse GlucR; conditions: assay 2, […] Mouse Serum Albumin; relative potencies vs natural ligands
Sequence of Mouse GlucR (Q61606 27-485): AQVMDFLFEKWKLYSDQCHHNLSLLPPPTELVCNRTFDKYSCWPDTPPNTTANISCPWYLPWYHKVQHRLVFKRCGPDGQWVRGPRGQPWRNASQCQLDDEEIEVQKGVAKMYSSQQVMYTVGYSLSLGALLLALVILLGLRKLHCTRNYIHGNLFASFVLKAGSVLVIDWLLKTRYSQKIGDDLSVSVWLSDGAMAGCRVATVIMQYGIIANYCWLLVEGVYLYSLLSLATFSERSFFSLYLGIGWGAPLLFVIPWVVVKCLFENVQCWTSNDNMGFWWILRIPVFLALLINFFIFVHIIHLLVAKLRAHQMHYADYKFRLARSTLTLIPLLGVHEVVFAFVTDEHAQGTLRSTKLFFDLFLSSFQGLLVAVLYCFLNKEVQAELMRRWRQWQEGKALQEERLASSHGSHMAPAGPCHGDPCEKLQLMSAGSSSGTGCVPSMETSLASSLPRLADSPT

[1] = frozen blank plasma from rat; conditions: 37° C, up to 48 hours
[2] = frozen blank plasma from mouse; conditions: 37° C, up to 48 hours
human GLP-1 receptor [3] = molecular target: T1, human GLP-1 receptor (human, UniProt P43220 24-463); assay: cell-based or functional assay
human serum albumin = human serum albumin (Homo sapiens, UniProt P02768); assay: calculated from the variation in cAMP generation with the HSA concentration (assay 2)
Sequence of human serum albumin (P02768 25-609 limits assumed): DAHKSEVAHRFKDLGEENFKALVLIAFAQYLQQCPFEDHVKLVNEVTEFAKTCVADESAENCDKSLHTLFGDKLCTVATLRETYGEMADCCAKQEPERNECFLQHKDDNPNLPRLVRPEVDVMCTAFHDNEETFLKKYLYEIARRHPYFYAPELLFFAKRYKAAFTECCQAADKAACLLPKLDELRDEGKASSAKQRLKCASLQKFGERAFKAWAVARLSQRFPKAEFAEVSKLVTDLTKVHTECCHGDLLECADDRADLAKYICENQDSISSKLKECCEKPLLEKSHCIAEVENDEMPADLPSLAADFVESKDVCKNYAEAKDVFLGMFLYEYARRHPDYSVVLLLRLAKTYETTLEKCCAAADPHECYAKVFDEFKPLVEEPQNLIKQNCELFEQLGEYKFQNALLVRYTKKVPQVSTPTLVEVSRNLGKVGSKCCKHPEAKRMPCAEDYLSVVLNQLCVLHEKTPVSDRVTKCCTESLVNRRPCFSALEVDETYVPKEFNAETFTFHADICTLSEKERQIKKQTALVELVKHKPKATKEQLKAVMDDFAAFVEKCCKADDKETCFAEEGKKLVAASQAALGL

human GLP-1 receptor [4] = molecular target: T1, human GLP-1 receptor; assay: cell-based or functional assay; remark: listed apart in the source
mouse glucagon receptor = mouse glucagon receptor (mouse, UniProt Q61606 27-485); assay: cell-based or functional assay
Sequence of mouse glucagon receptor (Q61606 27-485): as the sequence (Q61606 27-485) above

human glucagon receptor [5] = molecular target: T2, human glucagon receptor (human, UniProt P47871 26-477); assay: cell-based or functional assay
T2 sequence (P47871 26-477): as the sequence (P47871 26-477) above

mouse GLP-1 receptor = molecular target: T3, mouse GLP-1 receptor (mouse, UniProt O35659 22-463); assay: cell-based or functional assay
T3 sequence (looked up): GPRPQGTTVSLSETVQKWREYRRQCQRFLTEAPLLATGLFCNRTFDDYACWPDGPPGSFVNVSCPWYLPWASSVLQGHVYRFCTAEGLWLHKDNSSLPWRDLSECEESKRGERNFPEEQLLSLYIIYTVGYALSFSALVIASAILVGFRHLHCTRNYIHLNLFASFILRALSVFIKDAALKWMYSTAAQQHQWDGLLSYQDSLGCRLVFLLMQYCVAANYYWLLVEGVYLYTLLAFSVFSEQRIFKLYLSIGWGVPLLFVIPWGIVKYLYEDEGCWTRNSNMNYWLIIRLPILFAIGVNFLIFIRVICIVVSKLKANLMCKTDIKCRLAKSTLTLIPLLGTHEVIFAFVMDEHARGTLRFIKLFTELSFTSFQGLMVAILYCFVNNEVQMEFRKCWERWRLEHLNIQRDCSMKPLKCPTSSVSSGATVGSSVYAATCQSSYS

rat glucagon receptor = rat glucagon receptor (rat, UniProt P30082 27-485); assay: cell-based or functional assay
Sequence of rat glucagon receptor (P30082 27-485): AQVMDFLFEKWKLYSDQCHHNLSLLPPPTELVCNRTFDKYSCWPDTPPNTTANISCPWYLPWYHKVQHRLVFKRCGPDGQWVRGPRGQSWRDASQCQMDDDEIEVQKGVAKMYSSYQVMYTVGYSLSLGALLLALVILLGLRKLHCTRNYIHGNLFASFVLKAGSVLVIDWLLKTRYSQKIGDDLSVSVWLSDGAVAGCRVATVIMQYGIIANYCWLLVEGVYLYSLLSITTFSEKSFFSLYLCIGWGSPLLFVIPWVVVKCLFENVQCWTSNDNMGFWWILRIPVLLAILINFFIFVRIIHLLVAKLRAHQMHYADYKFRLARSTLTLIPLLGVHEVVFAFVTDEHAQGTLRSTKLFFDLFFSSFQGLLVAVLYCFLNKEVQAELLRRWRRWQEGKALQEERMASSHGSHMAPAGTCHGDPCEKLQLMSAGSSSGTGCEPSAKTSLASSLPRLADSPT

rat GLP-1 receptor = molecular target: T4, rat GLP-1 receptor (rat, UniProt P32301 22-463); assay: cell-based or functional assay
T4 sequence (looked up): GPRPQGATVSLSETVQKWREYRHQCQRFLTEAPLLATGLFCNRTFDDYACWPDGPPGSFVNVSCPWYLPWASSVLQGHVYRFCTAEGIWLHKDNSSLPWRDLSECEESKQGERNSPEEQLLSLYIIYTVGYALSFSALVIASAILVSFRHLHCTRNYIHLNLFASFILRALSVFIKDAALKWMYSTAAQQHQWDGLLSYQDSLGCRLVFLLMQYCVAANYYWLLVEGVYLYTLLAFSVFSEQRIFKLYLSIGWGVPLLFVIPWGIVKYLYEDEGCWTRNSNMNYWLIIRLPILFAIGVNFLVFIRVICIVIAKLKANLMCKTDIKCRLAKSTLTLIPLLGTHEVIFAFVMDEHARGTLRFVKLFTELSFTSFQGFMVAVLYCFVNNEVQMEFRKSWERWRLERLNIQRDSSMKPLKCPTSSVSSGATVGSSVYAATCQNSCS

human GLP-1 receptor [6] = molecular target: T1, human GLP-1 receptor; assay: cell-based or functional assay; remark: listed apart in the source
human glucagon receptor [7] = molecular target: T2, human glucagon receptor; assay: cell-based or functional assay; remark: listed apart in the source
[8] = molecular target: T5, human glucose-dependent insulinotropic peptide (gastric inhibitory polypeptide) receptor (human, UniProt P48546 22-466); assay: cell-based or functional assay
T5 sequence (looked up): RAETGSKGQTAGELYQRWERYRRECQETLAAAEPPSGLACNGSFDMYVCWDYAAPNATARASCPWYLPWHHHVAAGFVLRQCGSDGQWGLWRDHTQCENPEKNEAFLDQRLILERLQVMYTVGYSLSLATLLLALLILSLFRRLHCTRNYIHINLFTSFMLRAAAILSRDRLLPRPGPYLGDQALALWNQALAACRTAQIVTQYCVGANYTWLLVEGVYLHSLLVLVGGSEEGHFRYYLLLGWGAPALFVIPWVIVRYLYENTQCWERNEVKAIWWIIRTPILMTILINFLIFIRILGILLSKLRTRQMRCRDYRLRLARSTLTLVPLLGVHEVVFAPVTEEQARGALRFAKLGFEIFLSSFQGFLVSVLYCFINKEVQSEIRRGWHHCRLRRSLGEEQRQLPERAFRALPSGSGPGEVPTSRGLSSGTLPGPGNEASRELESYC

human GLP-1 receptor [9] = molecular target: T1, human GLP-1 receptor; assay: cell-based or functional assay; remark: listed apart in the source
human glucagon receptor [10] = molecular target: T2, human glucagon receptor; assay: cell-based or functional assay; remark: listed apart in the source
[11] = molecular target: T5, human glucose-dependent insulinotropic …; assay: cell-based or functional assay; remark: listed apart in the source

CCCCCCCCCCCCCCCC(=O)N[C@@H](CCC(=O)NCCCC[C@H](NC(=O)[C@H](CO)NC(=O)[C@H](CC(=O)O)NC(=O)[C@H](CC(C)C)NC(=O)[C@H](Cc1ccc(O)cc1)NC(=O)[C@H](CCCCN)NC(=O)[C@H](CO)NC(=O)[C@H](Cc1ccc(O)cc1)NC(=O)[C@H](CC(=O)O)NC(=O)[C@H](CO)NC(=O)[C@@H](NC(=O)[C@H](Cc1ccccc1)NC(=O)[C@@H](NC(=O)CNC(=O)[C@H](CCC(N)=O)NC(=O)CNC(=O)[C@@H](N)Cc1c[nH]cn1)[C@@H](C)O)[C@@H](C)O)C(=O)N[C@@H](CCCNC(=N)N)C(=O)N[C@@H](C)C(=O)N[C@@H](CCC(N)=O)C(=O)N[C@@H](CC(=O)O)C(=O)N[C@@H](Cc1ccccc1)C(=O)N[C@H](C(=O)N[C@@H](CCC(N)=O)C(=O)N[C@@H](Cc1c[nH]c2ccccc12)C(=O)N[C@@H](CC(C)C)C(=O)N[C@H](C(=O)N[C@@H](C)C(=O)NCC(=O)NCC(N)=O)C(C)C)C(C)C)C(=O)O [Peptide G380]
Human GlucR/GLP1R Ratio (Human GlucR): 0.013 | Mouse GlucR/GLP1R Ratio (Mouse GlucR): 0.006

HSQGTFTSDYSKXLDSERARDFVAWLVAGG-amide X13 = K(gE-palm)
fragment found [1]: DPP IV-cleavage product | fragment found [2]: DPP IV-cleavage product

B1: G730 (peptide)
peptide: HSQGTFTSDYSKK([γGlu-Palmitoyl])LDSERARDFVAWLVAGG-NH2
modifications: N-terminus assumed
SMILES: CCCCCCCCCCCCCCCC(=O)N[C@@H](CCC(=O)NCCCC[C@H](NC(=O)[C@H](CCCCN)NC(=O)[C@H](CO)NC(=O)[C@H](Cc1ccc(O)cc1)NC(=O)[C@H](CC(=O)O)NC(=O)[C@H](CO)NC(=O)[C@@H](NC(=O)[C@H](Cc1ccccc1)NC(=O)[C@@H](NC(=O)CNC(=O)[C@H](CCC(N)=O)NC(=O)[C@H](CO)NC(=O)[C@@H](N)Cc1c[nH]cn1)[C@@H](C)O)[C@@H](C)O)C(=O)N[C@@H](CC(C)C)C(=O)N[C@@H](CC(=O)O)C(=O)N[C@@H](CO)C(=O)N[C@@H](CCC(=O)O)C(=O)N[C@@H](CCCNC(=N)N)C(=O)N[C@@H](C)C(=O)N[C@@H](CCCNC(=N)N)C(=O)N[C@@H](CC(=O)O)C(=O)N[C@@H](Cc1ccccc1)C(=O)N[C@H](C(=O)N[C@@H](C)C(=O)N[C@@H](Cc1c[nH]c2ccccc12)C(=O)N[C@@H](CC(C)C)C(=O)N[C@H](C(=O)N[C@@H](C)C(=O)NCC(=O)NCC(N)=O)C(C)C)C(C)C)C(=O)O
EC50 at the GLP1R at 0% HSA (calculated from cAMP generation against HSA concentration) (human GLP-1 receptor [3]): 7 pM | free peptide at 4.4% HSA (human serum albumin): 0.85% | cAMP EC50 (assay 2, 4.4% human serum albumin) (human GLP-1 receptor [4]): 455 pM | cAMP EC50 (assay 2, 3.2% mouse serum albumin) (mouse glucagon receptor): 5.46 nM | cAMP EC50 (assay 2, 4.4% human serum albumin) (human glucagon receptor [5]): 402 pM | cAMP EC50 (assay 2, 3.2% mouse serum albumin) (mouse GLP-1 receptor): 1100 pM | cAMP EC50 (assay 2, 3.2% rat serum albumin) (rat glucagon receptor): 45.1 nM | cAMP EC50 (assay 2, 3.2% rat serum albumin) (rat GLP-1 receptor): 81 pM | cAMP EC50 (assay 1) (human GLP-1 receptor [6]): 39.5 pM | cAMP EC50 (assay 1) (human glucagon receptor [7]): 15 pM | cAMP EC50 (assay 1) [8]: 56.6 nM | cAMP EC50 (assay 1) (human GLP-1 receptor [9]): 18 pM | cAMP EC50 (assay 1) (human glucagon receptor [10]): 6.23 pM | cAMP EC50 (assay 1) [11]: 45 nM
